From paper doi:10.64898/2025.12.11.692727, “Nucleophagy removes cytotoxic trapped PARP1” (bioRxiv, 2025)

Biological target: T1, PARP1, recombinant, full length (printed as GFP-PARP1 in the results) (UniProt P09874 1-1014)
T1 construct: Full-length PARP1 cloned into the NcoI and BamHI sites of the pNIC28 vector; The results call the purified protein GFP-PARP1; the methods describe full-length PARP1 in pNIC28 without naming GFP; source: E. coli expression system, purified
Experiment: pull-down; in vitro; PARP1 (2.5 µM) loaded on PARP1-trap beads, TEX264 (2.5 µM) added, 2 hrs at 4°C; 50 mM HEPES pH 7.4, 500 mM NaCl, 0.01% Triton X-100, 1 mM TCEP; stringent washes with 0.1% Triton X-100; Western blot
Conditions: both partners purified

T1 sequence (P09874 whole entry): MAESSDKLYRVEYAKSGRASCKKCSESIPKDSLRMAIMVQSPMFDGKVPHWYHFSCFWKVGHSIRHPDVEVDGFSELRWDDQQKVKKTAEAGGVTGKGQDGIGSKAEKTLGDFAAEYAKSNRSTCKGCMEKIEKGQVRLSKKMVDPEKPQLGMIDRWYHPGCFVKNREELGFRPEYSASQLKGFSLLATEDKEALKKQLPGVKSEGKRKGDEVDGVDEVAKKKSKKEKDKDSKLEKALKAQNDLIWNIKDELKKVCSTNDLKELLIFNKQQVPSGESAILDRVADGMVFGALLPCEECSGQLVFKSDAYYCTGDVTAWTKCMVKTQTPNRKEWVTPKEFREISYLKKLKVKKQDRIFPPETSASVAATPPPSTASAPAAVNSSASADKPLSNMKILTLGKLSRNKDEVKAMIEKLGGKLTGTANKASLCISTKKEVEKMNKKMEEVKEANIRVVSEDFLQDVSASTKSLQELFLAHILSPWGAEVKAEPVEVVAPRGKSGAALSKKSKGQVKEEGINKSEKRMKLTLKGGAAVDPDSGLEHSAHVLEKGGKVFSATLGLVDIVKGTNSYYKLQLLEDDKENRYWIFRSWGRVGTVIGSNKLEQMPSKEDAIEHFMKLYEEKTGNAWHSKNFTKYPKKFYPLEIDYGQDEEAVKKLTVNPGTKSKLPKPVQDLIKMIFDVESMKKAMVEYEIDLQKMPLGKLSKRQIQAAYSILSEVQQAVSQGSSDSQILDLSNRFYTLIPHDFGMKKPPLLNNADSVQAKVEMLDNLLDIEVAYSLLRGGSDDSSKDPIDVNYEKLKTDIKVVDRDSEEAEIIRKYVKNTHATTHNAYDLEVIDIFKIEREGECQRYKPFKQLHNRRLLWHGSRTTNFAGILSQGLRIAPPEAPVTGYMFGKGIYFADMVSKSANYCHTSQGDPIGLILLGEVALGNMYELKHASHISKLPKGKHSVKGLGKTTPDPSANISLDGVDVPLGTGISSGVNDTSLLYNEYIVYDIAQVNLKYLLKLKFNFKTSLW

- binding result: binds
B1: TEX264 C-terminal half (186-313), recombinant (domain or fragment, UniProt Q9Y6I9 186-313, looked up)
chain: RQGDFYVPEMKETEWKWRGLVEAIDTQVDGTGADTMSDTSSVSLEVSPGSRETSAATLSPGASSRGWDDGDTRSEHSYSESGASGSSFEELDLEGEGPLGESRLDPGTEPLGTTKWLWEPTAPEKGKE
notes: The range 186-313 of the methods is tied to the 'C-terminal half' of the results by its position; source: E. coli expression system, purified
